Results on three molecules are retold here after US20010029022A1 (PHARMACIA AND UPJOHN, published 2001).

The chains are these.
B1: GST-HPV16 E7 (other)
chain: MHGDTPTLHEYMLDLQPETTDLYCYEQLNDSSEEEDEIDGPAGQAEPDRAHYNIVTFCCKCDSTLRLCVQSTHVDIRTLEDLLMGTLGIVCPICSQKP
notes: range 1-98; GST fusion from pGEX-4T-3; also called GST-16E7; full length GST-HPV 16 E7; not shown: glutathione-S-transferase (GST) moiety of vector pGEX-4T-3, at the amino-terminus
B2: GST-HPV31 E7 (other)
chain: MRGETPTLQDYVLDLQPEATDLHCYEQLPDSSDEEDVIDSPAGQAEPDTSNYNIVTFCCQCKSTLRLCVQSTQVDIRILQELLMGSFGIVCPNCSTRL
notes: GST fusion from pGEX-4T-3; also called GST-31E7; not shown: glutathione-S-transferase (GST) moiety of vector pGEX-4T-3, at the amino-terminus

In one experiment the target is T1, His-p27C (human, UniProt P46527 95-198).
T1 construct: range 95-198; also called carboxy terminal residues 95-198 of p27; not shown: poly-histidine tag from the expression vector
As to the kind of experiment: GST pull-down on glutathione-agarose beads, SDS-PAGE, Coomassie blue and Western blot.

The target in a further experiment is T2, His-p27N (human, UniProt P46527 1-101).
T2 construct: range 1-101; also called amino terminal residues 1-101 from p27; not shown: poly-histidine tag from the expression vector
The experiment is described as above.

The next experiment addresses cyclin A/CDK2 complex (UniProt P20248 1-432; P24941 1-298). Put plainly: cell-based or functional assay.
Experiment [1] has as its target CDK2 kinase complex (cyclin not given) (UniProt P24941 1-298). Put plainly: cell-based or functional assay.
The target of the experiment “GST-HPV16 E7” is B1. As to the kind of experiment: GST pull-down on glutathione-agarose beads, SDS-PAGE, Coomassie blue and Western blot. A general note: Immunoblotting shows a protein as a band on a membrane.
The experiment “GST-HPV31 E7” addresses B2. The description is as above.

T2 sequence (P46527 1-101): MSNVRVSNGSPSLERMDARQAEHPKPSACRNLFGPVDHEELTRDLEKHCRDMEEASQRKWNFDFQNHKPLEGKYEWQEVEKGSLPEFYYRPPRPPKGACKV
T1 sequence (P46527 95-198): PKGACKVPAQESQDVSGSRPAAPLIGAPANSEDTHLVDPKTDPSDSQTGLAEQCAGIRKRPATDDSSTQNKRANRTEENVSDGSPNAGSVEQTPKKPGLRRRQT
Sequence of cyclin A/CDK2 complex (P20248 whole entry, one chain of several): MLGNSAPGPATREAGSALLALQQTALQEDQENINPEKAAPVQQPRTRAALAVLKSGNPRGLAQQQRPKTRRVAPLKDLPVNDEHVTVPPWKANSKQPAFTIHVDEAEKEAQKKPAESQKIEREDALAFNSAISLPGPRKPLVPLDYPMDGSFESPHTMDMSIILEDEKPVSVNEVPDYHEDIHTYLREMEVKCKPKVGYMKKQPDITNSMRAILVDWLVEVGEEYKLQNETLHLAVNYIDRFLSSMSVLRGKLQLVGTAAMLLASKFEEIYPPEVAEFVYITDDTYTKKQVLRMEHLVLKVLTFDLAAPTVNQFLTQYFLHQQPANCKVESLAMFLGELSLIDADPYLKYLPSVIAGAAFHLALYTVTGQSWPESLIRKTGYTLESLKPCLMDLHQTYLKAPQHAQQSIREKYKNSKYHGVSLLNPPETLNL

With B1, the binding result with His-p27C and with His-p27N was “no binding” each time. Moreover, in the experiment with cyclin A/CDK2 complex, the “cyclinA/CDK2 histone H1 kinase activity (PhosphorImager)” value worked out at 26 fold. The “CDK2 histone kinase activity, fold activation” value in experiment [1] was 18.2 fold.
Consider B2, for which the binding result with His-p27C and with His-p27N was “no binding” each time. The “CDK2 histone kinase activity, fold activation” value in experiment [1] amounted to 12.6 fold.

B3: His-p21C (other)
chain: GLPKLYLPTGPRRGRDELGGGRRPGTSPALLQGTAEEDHVDLSLSCTLVPRSGEQAEGSPGGPGDSQGRKRRQTSMTDFYHSKRRLIFSKRKP
notes: range 72-164; also called carboxy terminal residues 72-164 of p21; not shown: poly-histidine tag from vector pET15b
Consider B3, for which the binding result with GST-HPV16 E7 and with GST-HPV31 E7 was “no binding” in each case.
